In US20260232827A1 (Zymeworks, published 2026):

B1: v38591 (humanized anti-NaPi2b antibody, H1L2, wild-type Fc, heavy chains with C-terminal lysine) (antibody, human IgG1, kappa)
heavy: not shown
light: DVQMTQSPSSLSASVGDRVTITCRASQDVYSYLNWYQQKPGKAVKLLIYYTSRLQSGVPSRFSGSGSGTDYTLTISSLQPEDFATYYCQQYNIFPWTFGQGTKLEIKRTVAAPSVFIFPPSDEQLKSGTASVVCLLNNFYPREAKVQWKVDNALQSGNSQESVTEQDSKDSTYSLSSTLTLSKADYEKHKVYACEVTHQGLSSPVTKSFNRGEC
notes: Full-size human IgG1/kappa antibody; also called v38591 (wild-type Fc)
B2: MX35 (v18992), reference anti-NaPi2b antibody (antibody, human IgG1, kappa)
heavy 1: GQVQLVQSGAEVVKPGASVKMSCKASGYTFTGYNIHWVKQAPGQGLEWIGAIYPGNGDTSYKQKFRGRATLTADTSTSTVYMELSSLRSEDSAVYYCARGETARATFAYWGQGTLVTVSSASTKGPSVFPLAPSSKSTSGGTAALGCLVKDYFPEPVTVSWNSGALTSGVHTFPAVLQSSGLYSLSSVVTVPSSSLGTQTYICNVNHKPSNTKVDKKVEPKSCDKTHTCPPCPAPELLGGPSVFLFPPKPKDTLMISRTPEVTCVVVDVSHEDPEVKFNWYVDGVEVHNAKTKPREEQYNSTYRVVSVLTVLHQDWLNGKEYKCKVSNKALPAPIEKTISKAKGQPREPQVYVYPPSRDELTKNQVSLTCLVKGFYPSDIAVEWESNGQPENNYKTTPPVLDSDGSFALVSKLTVDKSRWQQGNVFSCSVMHEALHNHYTQKSLSLSPG
heavy 2: not shown
light: GDIQMTQSPSSLSASVGDRVTITCSASQDIGNFLNWYQQKPGKTVKVLIYYTSSLYSGVPSRFSGSGSGTDYTLTISSLQPEDFATYYCQQYSKLPLTFGQGTKLELKRTVAAPSVFIFPPSDEQLKSGTASVVCLLNNFYPREAKVQWKVDNALQSGNSQESVTEQDSKDSTYSLSSTLTLSKADYEKHKVYACEVTHQGLSSPVTKSFNRGEC
B3: lifastuzumab (v18993), reference anti-NaPi2b antibody (antibody, human IgG1, kappa)
heavy 1: GEVQLVESGGGLVQPGGSLRLSCAASGFSFSDFAMSWVRQAPGKGLEWVATIGRVAFHTYYPDSMKGRFTISRDNSKNTLYLQMNSLRAEDTAVYYCARHRGFDVGHFDFWGQGTLVTVSSASTKGPSVFPLAPSSKSTSGGTAALGCLVKDYFPEPVTVSWNSGALTSGVHTFPAVLQSSGLYSLSSVVTVPSSSLGTQTYICNVNHKPSNTKVDKKVEPKSCDKTHTCPPCPAPELLGGPSVFLFPPKPKDTLMISRTPEVTCVVVDVSHEDPEVKFNWYVDGVEVHNAKTKPREEQYNSTYRVVSVLTVLHQDWLNGKEYKCKVSNKALPAPIEKTISKAKGQPREPQVYVYPPSRDELTKNQVSLTCLVKGFYPSDIAVEWESNGQPENNYKTTPPVLDSDGSFALVSKLTVDKSRWQQGNVFSCSVMHEALHNHYTQKSLSLSPG
heavy 2: not shown
light: GDIQMTQSPSSLSASVGDRVTITCRSSETLVHSSGNTYLEWYQQKPGKAPKLLIYRVSNRFSGVPSRFSGSGSGTDFTLTISSLQPEDFATYYCFQGSFNPLTFGQGTKVEIKRTVAAPSVFIFPPSDEQLKSGTASVVCLLNNFYPREAKVQWKVDNALQSGNSQESVTEQDSKDSTYSLSSTLTLSKADYEKHKVYACEVTHQGLSSPVTKSFNRGEC
B4: palivizumab (v21995), anti-RSV antibody, negative control (antibody, human IgG1, kappa, V domains shown)
VH: QVTLRESGPALVKPTQTLTLTCTFSGFSLSTSGMSVGWIRQPPGKALEWLADIWWDDKKDYNPSLKSRLTISKDTSKNQVVLKVTNMDPADTATYYCARSMITNWYFDVWGAGTTVTVSS
VL: DIQMTQSPSTLSASVGDRVTITCKSQLSVGYMHWYQQKPGKAPKLLIYDTSKLASGVPSRFSGSGSGTEFTLTISSLQPDDFATYYCFQGSGYPFTFGGGTKLEIKR

Experiments:
Assay in all cases: flow cytometry, transfected HEK293-6e cells, antibody 2 nM;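 note: transfected cells exposed to test antibody 24 h at 4 °C to block internalization, at least 1,000 events per well, background is mean MFI of unstained cells lacking primary antibody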
[1] = target: T1, Construct 7 (human NaPi2b del 317-326) (human, UniProt O95436 1-690)
T1 construct: also called CL_#29921
T1 sequence: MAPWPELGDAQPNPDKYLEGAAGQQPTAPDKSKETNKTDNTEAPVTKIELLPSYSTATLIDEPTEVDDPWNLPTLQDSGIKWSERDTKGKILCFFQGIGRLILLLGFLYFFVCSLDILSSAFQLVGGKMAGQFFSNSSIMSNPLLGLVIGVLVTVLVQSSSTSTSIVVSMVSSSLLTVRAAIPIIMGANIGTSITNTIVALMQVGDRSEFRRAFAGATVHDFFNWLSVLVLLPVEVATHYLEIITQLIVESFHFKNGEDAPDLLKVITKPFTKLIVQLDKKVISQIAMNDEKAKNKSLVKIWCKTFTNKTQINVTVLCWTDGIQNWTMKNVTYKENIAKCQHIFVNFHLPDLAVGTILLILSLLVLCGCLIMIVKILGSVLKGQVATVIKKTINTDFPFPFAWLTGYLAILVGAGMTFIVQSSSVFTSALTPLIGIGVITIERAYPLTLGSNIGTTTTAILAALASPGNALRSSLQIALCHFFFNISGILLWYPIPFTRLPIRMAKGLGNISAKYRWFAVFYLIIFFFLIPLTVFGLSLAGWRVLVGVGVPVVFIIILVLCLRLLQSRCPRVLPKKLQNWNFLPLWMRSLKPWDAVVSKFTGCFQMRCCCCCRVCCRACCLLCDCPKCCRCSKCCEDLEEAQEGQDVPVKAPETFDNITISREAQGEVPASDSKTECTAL

[2] = target: T2, Construct 6 (human NaPi2b del 317-333) (human, UniProt O95436 1-690)
T2 construct: also called CL_#29919
T2 sequence: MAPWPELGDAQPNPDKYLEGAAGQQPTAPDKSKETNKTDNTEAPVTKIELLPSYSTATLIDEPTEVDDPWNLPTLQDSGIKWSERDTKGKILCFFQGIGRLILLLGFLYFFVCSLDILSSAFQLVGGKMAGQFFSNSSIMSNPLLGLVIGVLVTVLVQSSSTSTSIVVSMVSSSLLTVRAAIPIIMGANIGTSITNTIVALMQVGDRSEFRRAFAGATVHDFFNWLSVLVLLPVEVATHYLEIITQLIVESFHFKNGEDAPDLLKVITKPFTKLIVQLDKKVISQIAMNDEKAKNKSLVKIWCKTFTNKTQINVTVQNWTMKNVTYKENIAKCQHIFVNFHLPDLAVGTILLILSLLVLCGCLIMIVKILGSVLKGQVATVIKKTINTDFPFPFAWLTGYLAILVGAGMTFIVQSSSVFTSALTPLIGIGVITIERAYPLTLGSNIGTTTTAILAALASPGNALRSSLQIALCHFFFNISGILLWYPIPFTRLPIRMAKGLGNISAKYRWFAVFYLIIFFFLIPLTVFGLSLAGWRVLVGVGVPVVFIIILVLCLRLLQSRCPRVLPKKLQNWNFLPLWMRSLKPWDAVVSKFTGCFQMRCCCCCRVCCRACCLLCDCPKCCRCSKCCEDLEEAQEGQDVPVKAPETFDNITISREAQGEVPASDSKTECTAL

[3] = target: T3, Construct 4 (chimeric human NaPi2b, swap in NaPi2c in 341-358) (human)
T3 construct: also called CL_#13435

[4] = target: T4, Full length human NaPi2b (sodium-dependent phosphate transporter 2B, SLC34A2) (human, UniProt O95436 1-690)
T4 construct: also called huNaPi2b; CL_#13432
T4 sequence: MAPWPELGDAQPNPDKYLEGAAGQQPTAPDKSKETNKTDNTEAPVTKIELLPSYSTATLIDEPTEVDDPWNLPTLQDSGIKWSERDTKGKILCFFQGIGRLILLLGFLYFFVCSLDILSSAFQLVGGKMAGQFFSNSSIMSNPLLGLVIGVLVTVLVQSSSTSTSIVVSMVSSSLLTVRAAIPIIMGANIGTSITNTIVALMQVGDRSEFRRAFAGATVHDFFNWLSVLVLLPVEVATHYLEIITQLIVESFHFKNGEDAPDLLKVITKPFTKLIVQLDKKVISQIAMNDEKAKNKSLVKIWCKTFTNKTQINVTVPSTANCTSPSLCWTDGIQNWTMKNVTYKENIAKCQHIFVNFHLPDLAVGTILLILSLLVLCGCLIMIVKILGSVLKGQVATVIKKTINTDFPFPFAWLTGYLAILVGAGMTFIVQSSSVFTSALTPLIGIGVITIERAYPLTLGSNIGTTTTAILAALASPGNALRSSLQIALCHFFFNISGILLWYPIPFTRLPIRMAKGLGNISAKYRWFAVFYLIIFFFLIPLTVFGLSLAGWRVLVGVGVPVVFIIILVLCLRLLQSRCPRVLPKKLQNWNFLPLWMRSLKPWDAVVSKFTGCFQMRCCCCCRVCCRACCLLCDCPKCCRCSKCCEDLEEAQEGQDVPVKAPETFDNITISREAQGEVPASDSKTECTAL

Binder | Background-Subtracted AF647 Mean Fluorescence Intensity [1] [MFI] | Background-Subtracted AF647 Mean Fluorescence Intensity [2] [MFI] | Background-Subtracted AF647 Mean Fluorescence Intensity [3] [MFI] | Background-Subtracted AF647 Mean Fluorescence Intensity [4] [MFI]
B1 | 677 | -38 | 725 | 948
B2 | 76 | -59 | 611 | 870
B3 | 56 | -91 | 726 | 1040
B4 | -34 | 11 | 1 | -22
